This passage reports stoichiometry N results from article PMC8131916.

The target in assay [1] is MM_0014, cis-prenyltransferase from Methanosarcina mazei (tag-free) (Methanosarcina mazei). The assay can be described thus: crystal structure; substrate-free MM_0014, hanging drop, Index No. 64 reagent with glycerol 3:1, 25 °C; space group C222_(1), two protein molecules per asymmetric unit; the same crystals soaked with IPP or DMAPP.
Assay [2] has the same target. Kind of assay: crystal structure; MM_0014 cocrystallised with FPP and MgCl2 (co-FG), Index No. 89 reagent with glycerol 3:1, 20 °C; space group P2_(1)2_(1)2_(1), eight protein molecules per asymmetric unit; the same crystals soaked with DMAPP.

A word on the stoichiometry N: it is the number of molecules, sites or subunits per partner or assembly. With “MM_0014, cis-prenyltransferase from Methanosarcina mazei (tag-free) (enzyme)”, the stoichiometry N in assay [1] and in assay [2] was 2 throughout.
